{"source": "the DeepSol protein solubility set", "data": [{"assay": "soluble on expression in E. coli; label from the status in PepcDB or PDB records", "values": [{"sequence": "MSLTLYKPNETDFTHNGIGALDKNIYNATVEEELNGLFLFSFSYPLFAPHGLEIEGMSIIKVPTPDGEQLFRVAAPKASMGEVTAQCYHIFYDLTENLIEDIFAETTNGNGAMNRMSAGCQYKHPFQFYSDVPKIASARIVRKNPVEALLDSSQDNSFVNRWGGELKRDNFDVKMLQNRGMDRGVVIRHKKDLLGYEGNVDWKSPITRIMPQGFDGLFLPEKYVDSPLINKYPHPKIKVVEFKHIKAAIGENADDEDAVPLEEAYRLLRQAAKGMFTIQKADQPKATYNVKFQELSQTEEYKDYKHLQSVYMADTVTVEHQEDGIDIKAKVIAYKYDPIKKEYLDVTIGNFKESFTDVSGRVDLVQEELSNMPSSILDAAKVNATSLINSGFGGHVRVYPNRILIMDTKDEKSAKKVWQWNLNGLGYSSTGVNGPYGTAITSDGRIVADFITAGTLSGNFVRGGEITGSTEGHHHHHH", "soluble on expression in E. coli": "soluble"}, {"sequence": "MSLTNDVDAIQPIGLRRIDHIAQTMKFDEMQDWLLYYISTFEMDKSSIVNVNDPSGIILSQAIESPEGEVRLNLNASEDLNTFAGLFVEDKFGAGVQHIAFASDDIFESANLLRINGFKSLAIPSGYYEETKNKFNLNDTFIAQLKKQNILYDQDGNSEYFQIYSKNLFDGFFFEIVQRKNGYSGYGARNASVRLSSQTILQQAEGHHHHHH", "soluble on expression in E. coli": "not soluble"}, {"sequence": "MSLTNEKSTEEIALGIRRRVFFHTMKNNGGYLSQACSAAESLALLYNELLTLGEPTLPKVPLPFRGVPSAHNPDAFTGAGYHGPVGPNFDRFFISPAHYALVIYSVLIEMGRMDEHALDHFNKDGGSVEMIGAEHSPGMEVTTGSLAQGLSMASGVAWARLRKKEPGKVWVYMSDGEFQEGQTWECLAAMSYHKIDNIRVIVDVNRQQCDGAMSSVLDLGDLASRVASFGVTCRSVDGHDLGALRAAAESAEAGKPLVILANTSPYQGMDFLKKRFPRLHYVRFKSAEERQEMQTALAIELGIDLTAMERAEGHHHHHH", "soluble on expression in E. coli": "not soluble"}, {"sequence": "MSLTNLLQKIGDAVTVVNFSLYEGFIFDMDGTLLDTMPAHLAAWEATAKHFDFPFDAQWLYGLGGMPSAKITTHINKKLGLALDPDRVAAYKMDWFASMGLQAEVIPATYELLCQWQGKKKMAIGTGSQRDSALRLLSNAQVLDKFDAVVTASDVQQHKPHPETFLMACEQLGLTPKQCLVFEDTQLGLQAAHAGGMDCMLVTEQGLVFYPFAHEGHHHHHH", "soluble on expression in E. coli": "soluble"}, {"sequence": "MSLTNPAPIEAPLPKGVTDFLPEKADKIGYIEGKIRRVFELWGFRRIITPLLEFQDVMAAGLGEDLKERTFRFDDRQTGKLLAIPSDITPQVARIVATRMRGCPLPHRLYYIGRVLRHVELQSGRSRETFQAGVELIGLDSPEADAEMVAMAVEILKGLGFEEFKVDLGHTGFIRGVMAASGLGGDARRRLQEAVGKKDSSAVRAILETEPVADRIKEELAALPRLFGGREVLAEAARVATSDSSRRALDNIAQVLDILDIHGVSDHLTLDLGEIRGLDYHSGLTFEGFVTGIGEAVCSGGRYDNLTQRYGYPAPATGFAFNILALLNALEKRPDVEASKTRDLLIFNLKDDRREALEIAQHLRALGYSTARDIIHRDFNDSLDYARRMNILRMMVIGGDYCAADEAYVVRVADKRGTAVKKADLMRNDFSLNTEGHHHHHH", "soluble on expression in E. coli": "soluble"}, {"sequence": "MSLTPLTGQDTPALDECVVDAVDVHAFEVPTDGPEGREQDGTLEWDATTLVLVRVHAGGRTGLGYTYGDVSVASFAHSVLGPVVKGRPVSSPPALWELMGARMRNAGRPGVGAMALSAVDVALWDLKARLLGLPLVHLLPAHHDRVPVYGSGGFTNYPLDRLTDQLAGWVRQGIGRVKLKTSRDPEADPRRLTAVRRAVGDGPEVFTDANGALGRKAALYWAHRFHDEWDVRWFEEPVASADLEGLRMLRERGPARLEITAGEYAFTAQDFANLTEGPAVDCLQADVTRCGGVTGVLEVAGLSAARHLDLSAHCAPAVSAHAFCAVRRLRHLEYFHDHVRVERLLFDGVPSPEGGALRPDTSRPGLGLEVRWADAEPYRVRGVRPPREGHHHHHH", "soluble on expression in E. coli": "soluble"}, {"sequence": "MSLTQAATRPTNDAGQDGGNNSDILVVARQQVLQRGEGLNQDQVLAVLQLPDDRLEELLALAHEVRMRWCGPEVEVEGIISLKTGGCPEDCHFCSQSGLFASPVRSAWLDIPSLVEAAKQTAKSGATEFCIVAAVRGPDERLMAQVAAGIEAIRNEVEINIACSLGMLTAEQVDQLAARGVHRYNHNLETARSFFANVVTTHTWEERWQTLSMVRDAGMEVCCGGILGMGETLQQRAEFAAELAELGPDEVPLNFLNPRPGTPFADLEVMPVGDALKAVAAFRLALPRTMLRFAGGREITLGDLGAKRGILGGINAVIVGNYLTTLGRPAEADLELLDELQMPLKALNASLEGHHHHHH", "soluble on expression in E. coli": "soluble"}, {"sequence": "MSLTQIQPGVEKFIKDFNDAKKKGEHAYDMTLSYQNFDKGFFNSRFQMQMTFDNGAPDLNIKPGQKVVFDVDVEHGPLPITMLMHGNVIPALAAAKVNLVNNELTQPLFIAAKNKSPVEATLRFAFGGSFSTTLDVAPAEYGKFSFGEGQFTFNGDGSSLSNLDIEGKVEDIVLQLSPMNKVTAKSFTIDSLARLEEKKFPVGESESKFNQINIINHGEDVAQIDAFVAKTRLDRVKDKDYINVNLTYELDKLTKGNQQLGSGEWSLIAESIDPSAVRQFIIQYNIAMQKQLAAHPELANDEVALQEVNAALFKEYLPLLQKSEPTIKQPVRWKNALGELNANLDISIADPAKSSSSTNKDIKSLNFDVKLPLNVVTETAKQLNLSEGMDAEKAQKQADKQISGMMTLGQMFQLITIDNNTASLQLRYTPGKVVFNGQEMSEEEFMSRAGRFVHEGHHHHHH", "soluble on expression in E. coli": "not soluble"}, {"sequence": "MSLTQPPQQAISAAHSELEQNHRVLLQLMDTLVSQIKDYSEDVEFNLQNDSTIKNTIVEILSFISRSNQKDQLSLKVSQAVVNSLFGSNESKLCRDVLSLLLEKLCSLSIVARKDVVWWLVYALDPRKFNVPVVRSLLEVNLINIAEFDAVLVTAMKNGMAGATEFSMNLIRDTVMADSPILMRLDFIRILGYLRTINTPEIKAFLEEYEQCRAVPVSKTTSITKVERYYLVFTEWVKLQQRVETDDVVNIVFIRQLFEKGVIDSKEKVIEFIKAALELSVNSFKQSDPTGEVFTSIDALSRLITSLLVVQELNVEERKEYLNLLLSVVTLVFAKDHQTNMTSFNERPYFRLYSSLLSDWDKLRDHHFIRVSDSVVRKSLIEFDQYFFDIFASFLHSYQPIAFPGFSFAWITLISHRMFLPKVLRSKELYGWDKLVLLLIDLMKFLSQYIKKDNVPDSISVIYKGALRIFLGISNDVPEFLIQNHYKLVKNVPPTCIQLRNIILSAIPKKMMIPDPFVSEITEDNCKDIPQVFYDPSQDLKSLKKPIINYLRIPSSSLLRTICGGMFRTELEYENGIGYDENNVDVNLIHAIVTHVAVEVGLEVEKASKNAVFNVKSSYYTLLFGLLSDGNDEVKFHIIQAMVNQLRYPNVHTHWFNFALKLMFQSDQWPDDQLSTIQEIILRSLLERIIVNKPHPWGVVVTFMDLLKLEGTKMIEKPFINDIPEIHAIMKNLQKYALTSSSEGHHHHHH", "soluble on expression in E. coli": "soluble"}, {"sequence": "MSLTQVIPTSLLQRLSLLFGCAGIVLGTAVANASSPASRDLFEIHVRPTLIKHCIQCHGETEQEGGLKLTSLDAMLAGGDSGPAIVPGNADDSLILEALRFESFEMPPAGQLDDPVVNGFASWIKAGAPWPEDLILTPMPIITEDDRDWWCYQPIADPVVPDVDDDSWCRNEIDRFVLDRLKQENLRPADEATASQLTRRLHFALTGLPPTCPPPSNQQNADSSADDWYEAQLNELLSSPAYGEHQARYWMDLVRYADSDGYNADHARPHAHLYRDYVIRSFNEDKPYDRFVCEQLAGDEIDPGNRDALIGTMYLRHWIYEWNQRDVEGQWQEIISDITETTADVFLAQGLKCARCHDHKFDPLLQRDFFALKAFFTPLLPREDFPVADVATREGHHHHHH", "soluble on expression in E. coli": "not soluble"}, {"sequence": "MSLTRSTRNSIEFKVWGRHALFTDPLTKVGGEKCSYHVPTYEALKGIAKSIYWKPTLIWVIDEVRVMKRVRTQTKGTKPLEFGGGNSLAIYTFLADVEYQVRAHFEWNEHRPELQADRIDGKHYAIARRMLERGGRQDIFLGTRDCQGYIEPCEFGGGAGAHDEGSELAFGLMFHGFDYPDETGDQKLHARFWRPVMRNGFIRFDRPEDCPVRKFVRSMSVKPFGFGQNLQSADEAAAELEGLAEGHHHHHH", "soluble on expression in E. coli": "soluble"}, {"sequence": "MSLTSNIFSGCMPALMTPCKADRSPDFDALVKKGKELIEAGMSAVVYCGSMGDWPLLTDEQRMEGVERLVKAGVPVVVGTGAVNTRVAVAHAAHAAKVGARGLMVIPRVLSRGSSVSAQRNHFSDILKAAPSLPAVIYNSPYYGFATRADLFFDLRREFPNLIGFKEFGGLADLRYAAENITSQDDQVTLMVGVDTAVYHGFVNCGATGAITGIGNALPKEVLHLVALCQKAAEGHAEARLRARELEEALAVLSSFDEGSDLVLYYKHLMVLNGEDEYRLHFNETDALSDAQRNYAEAQYELFRTWYADWSTKGEGHHHHHH", "soluble on expression in E. coli": "soluble"}, {"sequence": "MSLTTLHFSGFPRVGAFRELKFAQEKYWRKEISEQELLAVAKDLREKNWKHQVAANADFVAVGDFTFYDHILDLQVATGAIPARFGFDSQNLSLEQFFQLARGNKDQFAIEMTKWFDTNYHYLVPEFHADTEFKANAKHYVQQLQEAQALGLKAKPTVVGPLTFLWVGKEKGAVEFDRLSLLPKLLPVYVEILTALVEAGAEWIQIDEPALAVDLPKEWVEAYKDVYATLSKVSAKILLSTYFGSVAEHAALLKALPVDGLHIDLVRAPEQLDAFADYDKVLSAGVIDGRNIWRANLNKVLETVEPLQAKLGDRLWISSSCSLLHTPFDLSVEEKLKANKPDLYSWLAFTLQKTQELRVLKAALNEGRDSVAEELAASQAAADSRANSSEIHRADVAKRLADLPANADQRKSPFADRIKAQQAWLNLPLLPTTNIGSFPQTTEIRQARSAFKKGELSAADYEAAMKKEIALVVEEQEKLDLDVLVHGEAERNDMVEYFGELLSGFAFTQYGWVQSYGSRCVKPPIIFGDVSRPEAMTVAWSTYAQSLTKRPMKGMLTGPVTILQWSFVRNDIPRSTVCKQIALALNDEVLDLEKAGIKVIQIDEPAIREGLPLKRADWDAYLNWAGESFRLSSAGCEDSTQIHTHMCYSEFNDILPAIAAMDADVITIETSRSDMELLTAFGEFQYPNDIGPGVYDIHSPRVPTEAEVEHLLRKAIEVVPVERLWVNPDCGLKTRGWKETLEQLQVMMNVTRKLRAELAKEGHHHHHH", "soluble on expression in E. coli": "not soluble"}, {"sequence": "MSLTTRRDFIKKTVAGTAALSLGSIIPGFGSNSYQEILGANEKIRIGVIGVNSRGNALAQGFAKMKGCEVTYLCDVDSRALERCQADIHKISGRTPKGEKDIRKMLESDDFEAVVIATPDHWHGKAAIMAMQAGKHVYLEKPTSHNPAENEMLVRATLKYNRIVQVGNQRRSWPNVIKAIEEIKSGAIGKVRYAKSWYVNNRPSIGTGKVVPVPDYLDWDLWQGPAPRVPNFKDNYIHYNWHWFWNWGTGEALNNGTHFVDILRWGLGVDYPTKVDSVGGRYRFQDDWQTPDTQLITFQFGDEASCSWEGRSCNSTPVDGYGVGTAFYGETGTLFISGGNEYKITDLQGKVIKDVKSNLKFETGNLLNPSEKLDAYHFENWFDAIRKGGKLNSGIVDACISTQLVQLGNIAQRVGHSLDIDPGSGRILNDLEANKLWGREYEKGWEIREGHHHHHH", "soluble on expression in E. coli": "soluble"}, {"sequence": "MSLVDLDLTQIQKDILYALITLYKKKSGGSVKGEEIAELINRNPGTVRNQMQALRALGLVEGVPGPKGGYRPTSKAYELLSVTRPEESVVVPVVVNGNVMEELSAEEIVLPSISNPNICQARIRIIGDIKKINPGDSVIVGPTPVNEMMVYGKVVGRDDTENTIVLDIEKIVALPKDTVGEHMSSPIISVDAEESVVNAAKVLAENGIYCTPVQKNGKFVGIFTLDHVAKAVAEGKLNAKVEEVMRPKLVMVEKDTKIGEALRLMRDEKVRILLVTDKGEPVGVITDQKILTRLAPEQVETEGHHHHHH", "soluble on expression in E. coli": "soluble"}, {"sequence": "MSLVEMKFLTDRMLGRLTRWLRISGYDTVSVSELEFDEEEDEFMLRNLRDRILLTKDRELYRKSVKEGRKAILIRSDSLEGQMRELMERGVKFQIVMDRCSLCNTPLRKPSREEAMEVIEREKLSEDMLEFELWYCEKCRKLYWMGGHWKNMTRFLRKFESEGHHHHHH", "soluble on expression in E. coli": "soluble"}]}]}
